In patent US20200171163A1 (Daiichi Sankyo, published 2020) one finds binding result and Kd data, which are given here for eight molecules.

Changes are numbered by the printed parent chain.

First the molecules themselves.
T1: human CDH6 (full-length, on cells) (human, UniProt P55285 54-790)
T1 construct: also called hCDH6; full-length hCDH6
T1 sequence: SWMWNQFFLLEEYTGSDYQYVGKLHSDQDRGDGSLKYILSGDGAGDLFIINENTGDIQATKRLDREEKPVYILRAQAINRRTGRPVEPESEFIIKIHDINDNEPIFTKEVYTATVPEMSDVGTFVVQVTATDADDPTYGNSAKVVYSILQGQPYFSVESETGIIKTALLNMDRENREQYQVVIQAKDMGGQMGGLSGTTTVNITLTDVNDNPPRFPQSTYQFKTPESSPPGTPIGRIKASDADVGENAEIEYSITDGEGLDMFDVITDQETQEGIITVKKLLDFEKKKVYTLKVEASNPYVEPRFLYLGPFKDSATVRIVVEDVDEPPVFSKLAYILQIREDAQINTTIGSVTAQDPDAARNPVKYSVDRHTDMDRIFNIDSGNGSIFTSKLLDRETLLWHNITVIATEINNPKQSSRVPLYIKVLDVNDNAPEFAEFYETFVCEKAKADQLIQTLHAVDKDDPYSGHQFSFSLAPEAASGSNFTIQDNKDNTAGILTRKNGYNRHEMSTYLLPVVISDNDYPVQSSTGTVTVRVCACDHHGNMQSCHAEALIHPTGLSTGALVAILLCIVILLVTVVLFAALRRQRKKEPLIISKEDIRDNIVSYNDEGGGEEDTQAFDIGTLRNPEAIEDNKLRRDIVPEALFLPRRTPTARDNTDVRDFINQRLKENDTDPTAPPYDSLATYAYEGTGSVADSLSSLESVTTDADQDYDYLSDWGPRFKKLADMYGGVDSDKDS

T2: Recombinant Human CDH6 Fc His chimera (R&D Systems, Inc.) (human, UniProt P55285 54-615)
T2 construct: Bought product; also called the antigen; human CDH6 antigen
T2 sequence: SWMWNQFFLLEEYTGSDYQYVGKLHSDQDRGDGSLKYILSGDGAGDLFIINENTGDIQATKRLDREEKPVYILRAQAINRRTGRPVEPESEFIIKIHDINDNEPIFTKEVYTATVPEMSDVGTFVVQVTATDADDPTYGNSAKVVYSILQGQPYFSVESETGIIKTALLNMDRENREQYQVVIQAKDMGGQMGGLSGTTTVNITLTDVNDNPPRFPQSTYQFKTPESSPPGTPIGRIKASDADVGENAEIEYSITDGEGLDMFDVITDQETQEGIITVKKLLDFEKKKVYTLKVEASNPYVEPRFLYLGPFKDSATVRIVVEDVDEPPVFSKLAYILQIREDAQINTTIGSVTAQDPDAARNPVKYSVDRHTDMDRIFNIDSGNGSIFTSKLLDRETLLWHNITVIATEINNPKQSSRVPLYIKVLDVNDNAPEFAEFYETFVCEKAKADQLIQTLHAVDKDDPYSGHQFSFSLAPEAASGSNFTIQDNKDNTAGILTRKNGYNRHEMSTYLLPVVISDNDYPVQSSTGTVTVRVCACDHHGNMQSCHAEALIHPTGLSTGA

B1: rG019 antibody (antibody, V domains shown)
VH: QVQLQQSGAELVKPGSSVKISCKASGYTFTRNFMHWIKQQPGNGLEWIGWIYCGDGETEYNQKFNGKATLTADRSSSTAYMELSRLTSEDSAVYFCARGVYGGFAGGYFDFWGQGVMVTVSS
VL: DIQMTQSPSLLSASVGDRVTLNCKASQNIYKNLAWYQQKLGEGPKLLIYDANTLQTGIPSRFSGSGSGSDFTLTISSLQPEDVATYFCQQYYSGWAFGGVTNLELKRA
notes: Rat monoclonal purified from hybridoma; also called rat anti-CDH6 monoclonal antibody clone rG019
B2: rG055 antibody (antibody, V domains shown)
VH: EVQLQESGPGLVRPSQSLSLSCSVTDYSITSNYWGWIRRFPGNKMEWMGYITYSGYTSYNPSLQSRISITRDTSKNQFFLQLNSVTAEDTATYYCARSINHGGYSYVVDAWGPGASVTVSS
VL: DVQMTHSPSYLAASPGESVSISCKTSKNISNYLVWYQQKPGEAYKLLIYSGSTLQSGTPSRFSGSGSGTDFTLTIRSLEPEDFGLYFCQQYYEKPFTFGSGTKLEIKR
notes: Rat monoclonal purified from hybridoma; also called rat anti-CDH6 monoclonal antibody clone rG055
B3: rG061 antibody (antibody, V domains shown)
VH: EVQLQESGPGLVKPSQSLSLTCSVTGYSITTYYWGWIRKFPGNKMEWMGYISYSGRTSYNPSLKSRMSITRDASKNQFFLQLNSVTTDDTATYYCARSPINHGGYWYFDFWGPGTMVTVSS
VL: B2 VL with H6Q, T25A, S26T, N28S, V34A, L46V, F87S, F96L
notes: Rat monoclonal purified from hybridoma; also called rat anti-CDH6 monoclonal antibody clone rG061
B4: rG056 antibody (antibody, V domains shown)
VH: EVQLQESGPGLVKPSQSLSLTCSVTDYSITTYFWGWIRKFPGNKMEWMGYMSYRGGTSYNPSLKSRISITRDTSKNQFFLQLNSVTTEDTATYYCARCPNYGGHSLVFDYWGQGVMVTVSS
VL: DVQMTQSPSSLAASPGESVSISCRATKSIGIYLAWYQQKPGKTFKLLIYSGSTLQSGTPSRFSGSGSGTDFTLTIRSLEPEDFGLYFCQQFYENPFTFGSGTKLEIRR
notes: Rat monoclonal purified from hybridoma; also called rat anti-CDH6 monoclonal antibody clone rG056
B5: H02L02 antibody (antibody, human IgG1, kappa, V domains shown)
VH: EVQLVQSGAEVKKPGASVKVSCKASGYTFTRNFMHWVRQAPGQGLEWMGWIYPGDGETEYNQKFQGRVTITADRSTSTAYMELSSLRSEDTAVYFCARGVYGGFAGGYFDFWGQGTLVTVSS
VL: DIQMTQSPSSLSASVGDRVTITCKASQNIYKNLAWYQQKPGKAPKLLIYDANTLQTGVPSRFSGSGSGSDFTLTISSLQPEDFATYFCQQYYSGWAFGQGTKVEIKR
notes: Humanized IgG1/kappa (hH02 + hL02); also called humanized hG019 antibody H02L02
B6: H01L02 antibody (antibody, human IgG1, kappa, V domains shown)
VH: B5 VH with N61A, R74T, F95Y
VL: B5 VL
notes: Humanized IgG1/kappa (hH01 + hL02); also called humanized hG019 antibody H01L02; labeled H01L02
B7: H02L03 antibody (antibody, human IgG1, kappa, V domains shown)
VH: B5 VH
VL: B5 VL with P40L, K42E, A43G, S69T, F87Y
notes: Humanized IgG1/kappa (hH02 + hL03); also called humanized hG019 antibody H02L03
B8: H04L02 antibody (antibody, human IgG1, kappa, V domains shown)
VH: B5 VH with E1Q, V37I, N61A, I70L, F95Y
VL: B5 VL
notes: Humanized IgG1/kappa (hH04 + hL02); also called humanized hG019 antibody H04L02

The target of the first assay is T1, human CDH6 (full-length, on cells). The experiment in a line: flow cytometry; hCDH6-transfected 293T cells (open) vs untransfected control cells (shaded); antibody 10 ng/mL; anti-rat IgG-FITC. The protocol:
The human CDH6-binding activity of the rat anti-CDH6 antibody produced in Example 1)-7 was evaluated by flow cytometry. […] The cells were cultured overnight under conditions of 37° C. and 5% CO₂, and thereafter, a cell suspension was prepared. […] Thereafter, the cells were suspended by the addition of each of the 4 rat anti-CDH6 monoclonal antibodies (clone Nos: rG019, rG055, rG056 and rG061), which had been prepared in Example 1)-7, or rat IgG control (R&D Systems, Inc.) (final concentration: 10 ng/mL). The cells were left standing at 4° C. for 1 hour. The cells were washed twice with PBS supplemented with 5% FBS, and then suspended by the addition of Anti-Rat IgG (whole molecule)-FITC antibody produced in rabbit (Sigma-Aldrich Co. LLC) that had been 50-fold diluted with PBS supplemented with 5% FBS. The cells were left standing at 4° C. for 1 hour. The cells were washed twice with PBS supplemented with 5% FBS, followed by detection using a flow cytometer (FC500; Beckman Coulter, Inc.). The data was analyzed using FlowJo (Tree Star, Inc.). In the histogram of FIG. 1, the abscissa depicts FITC fluorescence intensity indicating the amount of the antibody bound, and the ordinate depicts a cell count. […] The rat IgG control binds to neither of the cells.
On the technique in general: A flow cytometer gives signals particle by particle.
With B1, the binding result is “binds”.
On the same count and under the same terms, as for B2, the entry is “binds”.
As to B3, the binding result was “binds”.
In the case of B4, the binding result was “binds”.

Another assay addresses T2, Recombinant Human CDH6 Fc His chimera …. The experiment in a line: SPR (Biacore T200), antigen captured by anti-His antibody, antibody as analyte, steady state affinity model. Here is the method:
The dissociation constant between the antibody and the antigen (Recombinant Human CDH6 Fc His chimera, R&D Systems, Inc.) was measured by using Biacore T200 (GE Healthcare Biosciences Corp.), according to a capture method, which comprises capturing the antigen as a ligand with the immobilized anti-His antibody and then measuring the dissociation constant using an antibody as an analyte. Approximately 1000 RU of the anti-histidine antibody (His capture kit, GE Healthcare Biosciences Corp.) was covalently bound to sensor chip CM5 (GE Healthcare Biosciences Corp.) by the amine coupling method. The antibody was also immobilized onto reference cells in the same manner as above. HBS-P+ (10 mM HEPES pH 7.4, 0.15 M NaCl, 0.05% Surfactant P20) supplemented with 1 mM CaCl₂ was used as a running buffer. The antigen was added onto the anti-histidine antibody-immobilized chip for 60 seconds, and a dilution series solution (0.391 to 100 nM) of the antibody was then added at a flow rate of 30 μl/min for 300 seconds. Subsequently, the dissociation phase was monitored for 600 seconds. As a regeneration solution, a glycine solution (pH 1.5) supplemented with 5 M MgCl2 was added twice at a flow rate of 10 μl/min for 30 seconds. A Steady State Affinity model in analysis software (BIAevaluation software, version 4.1) was used in data analysis, and the dissociation constant (KD) was calculated.
For orientation: In SPR one partner is held on a chip, and binding of the other changes the refractive index at the surface.
With B5, the Kd (commonly a measure of binding affinity in units of concentration) is 1.1 nM.
Regarding B6, the Kd turned out to be 1.5 nM.
Take B7: the dissociation constant (Kd) was 1.4 nM.
The same measure, in the same setting: the figure for B8 is 1.1 nM.
